Data from patent publication US20040248211A1 (published 2004).

Key:
[1] = target: CD18-independent counter-receptor for ICAM-R on Jurkat cells; assay: Jurkat cell adhesion to plate-bound shICAM-R, peptide 1-2 mg/ml
[2] = target: T1, LFA-1 (CD11a/CD18) on cells (human, UniProt P20701 26-1170; P05107 23-769); assay: JY cell adhesion to plate-bound chimera
T1 construct: whole, on cells; On SKW3, JY, HL-60 cells, neutrophils and transfected CHO and COS cells; also called CD18/CD11a

[3] = target: T2, VLA-4 (alpha4/beta1) on cells (UniProt P13612 34-1032; P05556 21-798, limits assumed); assay: adhesion of transfected COS cells to immobilized chimera (20 ug/ml coat)
T2 construct: whole, on cells; On Jurkat cells, T cells and COS cells transfected with alpha4 and beta1 cDNAs; also called α4/β1; α4β1

T1 sequence (P20701 26-1170, chain 1 of 2): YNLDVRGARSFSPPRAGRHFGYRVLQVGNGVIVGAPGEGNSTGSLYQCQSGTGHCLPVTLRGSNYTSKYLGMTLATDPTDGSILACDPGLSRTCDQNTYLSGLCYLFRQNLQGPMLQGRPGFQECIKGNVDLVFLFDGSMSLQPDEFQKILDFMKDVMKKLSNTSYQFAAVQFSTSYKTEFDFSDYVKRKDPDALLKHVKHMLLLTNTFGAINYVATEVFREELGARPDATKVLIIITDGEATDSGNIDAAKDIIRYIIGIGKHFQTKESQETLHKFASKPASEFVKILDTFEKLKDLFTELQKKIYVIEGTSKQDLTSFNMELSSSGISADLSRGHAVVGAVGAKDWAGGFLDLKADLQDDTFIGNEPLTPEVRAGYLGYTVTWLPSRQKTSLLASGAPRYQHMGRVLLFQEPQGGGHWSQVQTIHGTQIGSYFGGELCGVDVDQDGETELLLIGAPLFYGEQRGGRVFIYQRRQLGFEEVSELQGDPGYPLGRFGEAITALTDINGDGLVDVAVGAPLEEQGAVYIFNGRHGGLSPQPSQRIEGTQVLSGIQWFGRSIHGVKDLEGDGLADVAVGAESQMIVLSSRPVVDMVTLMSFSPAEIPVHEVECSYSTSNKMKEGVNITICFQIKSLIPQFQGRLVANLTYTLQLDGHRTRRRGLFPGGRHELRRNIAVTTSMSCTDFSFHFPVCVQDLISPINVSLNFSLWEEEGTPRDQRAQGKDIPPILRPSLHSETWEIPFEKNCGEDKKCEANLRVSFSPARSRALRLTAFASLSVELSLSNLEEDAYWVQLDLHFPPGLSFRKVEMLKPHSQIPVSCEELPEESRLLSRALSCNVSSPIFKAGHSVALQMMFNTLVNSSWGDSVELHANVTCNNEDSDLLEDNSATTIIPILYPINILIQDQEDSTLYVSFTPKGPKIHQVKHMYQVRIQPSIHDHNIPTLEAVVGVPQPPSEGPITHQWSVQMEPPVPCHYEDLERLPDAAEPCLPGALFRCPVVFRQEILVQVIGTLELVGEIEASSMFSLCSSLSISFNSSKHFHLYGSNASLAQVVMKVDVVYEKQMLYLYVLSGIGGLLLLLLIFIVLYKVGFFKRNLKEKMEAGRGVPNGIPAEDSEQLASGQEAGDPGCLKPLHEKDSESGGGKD
T1 sequence (P05107 23-769, chain 2 of 2): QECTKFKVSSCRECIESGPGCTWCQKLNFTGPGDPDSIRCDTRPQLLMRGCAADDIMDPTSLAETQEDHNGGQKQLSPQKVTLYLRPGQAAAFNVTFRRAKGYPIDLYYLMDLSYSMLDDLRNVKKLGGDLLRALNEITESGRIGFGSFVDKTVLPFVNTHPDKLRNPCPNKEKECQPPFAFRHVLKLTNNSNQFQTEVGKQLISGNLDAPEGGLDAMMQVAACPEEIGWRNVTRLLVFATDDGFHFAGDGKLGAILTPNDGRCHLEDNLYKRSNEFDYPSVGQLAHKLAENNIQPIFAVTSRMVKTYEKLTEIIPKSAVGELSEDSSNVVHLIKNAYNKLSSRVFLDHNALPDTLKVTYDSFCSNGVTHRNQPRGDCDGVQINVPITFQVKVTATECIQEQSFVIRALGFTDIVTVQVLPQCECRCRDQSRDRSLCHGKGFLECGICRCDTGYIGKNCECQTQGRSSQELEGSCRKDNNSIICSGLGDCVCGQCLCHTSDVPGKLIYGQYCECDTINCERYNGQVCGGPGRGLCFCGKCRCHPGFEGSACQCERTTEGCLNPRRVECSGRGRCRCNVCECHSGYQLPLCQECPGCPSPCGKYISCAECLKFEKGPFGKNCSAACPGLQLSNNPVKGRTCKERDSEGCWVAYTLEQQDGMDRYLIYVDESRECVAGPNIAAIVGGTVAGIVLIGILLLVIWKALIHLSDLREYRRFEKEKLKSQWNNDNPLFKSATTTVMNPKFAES

B1: ICAM-R domain 3 peptide GDQML, residues 230-234 (peptide)
peptide: GDQML
notes: also called ICAM-R 230-234
% Inhibition of cell binding to shICAM-R [1]: 36%

B2: ICAM-R domain 3 peptide, residues 271-276 (peptide)
peptide: GERREA
notes: also called ICAM-R 271-276
% Inhibition of cell binding to shICAM-R [1]: 11%

B3: ICAM-1 domain 1 peptide DGQST, residues 70-74 (peptide)
peptide: DGQST
notes: also called ICAM-1 70-74
% Inhibition of cell binding to shICAM-R [1]: 9%

B4: ICAM-1 domain 3 peptide GDQRL, residues 228-232 (peptide)
peptide: GDQRL
notes: also called ICAM-1 228-232
% Inhibition of cell binding to shICAM-R [1]: 22%

B5: ICAM-R/IgG chimera with domain 3 deleted (Fc fusion)
chain: QEFLLRVEPQNPVLSAGGSLFVNCSTDCPSSEKIALETSLSKELVASGMGWAAFNLSNVTGNSRILCSVYCNGSQITGSSNITVYGLPERVELAPLPPWQPVGQNFTLRCQVEGGSPRTSLTVVLLRWEEELSRQPAVEEPAEVTATVLASRDDHGAPFSCRTELDMQPQGLGLFVNTSAPRQLRTFLGPIVNLSEPTAHEGSTVTVSCMAGARVQVTLDGVPAAAPGQTAQLQLNATESDDGRSFFCSATLEVDGEFLHRNSSVQLRVLYGPKIDRATCPQHLKWKDKTRHVLQCQARGNPYPELRCLKEGSSREVPVGIPFFVNVTHNGTYQCQASSSRGKYTLVVVMDIEAFSSH
notes: also called domain 3 deletion chimera; not shown: human IgG1 hinge, CH2 and CH3
binding result [2]: binds

B6: ICAM-R domain 1 peptide, residues 32-38 (peptide)
peptide: EKIALET
notes: also called ICAM-R 32-38
% Inhibition of cell binding to shICAM-R [1]: 10%

B7: ICAM-R domain 1 peptide NGSQI, residues 72-76 (peptide)
peptide: NGSQI
notes: also called ICAM-R 72-76
% Inhibition of cell binding to shICAM-R [1]: 17%

B8: ICAM-1/IgG chimera (Fc fusion, UniProt P05362 28-480, looked up, not shown: a dimerising Fc or GST)
chain: QTSVSPSKVILPRGGSVLVTCSTSCDQPKLLGIETPLPKKELLLPGNNRKVYELSNVQEDSQPMCYSNCPDGQSTAKTFLTVYWTPERVELAPLPSWQPVGKNLTLRCQVEGGAPRANLTVVLLRGEKELKREPAVGEPAEVTTTVLVRRDHHGANFSCRTELDLRPQGLELFENTSAPYQLQTFVLPATPPQLVSPRVLEVDTQGTVVCSLDGLFPVSEAQVHLALGDQRLNPTVTYGNDSFSAKASVSVTAEDEGTQRLTCAVILGNQSQETLQTVTIYSFPAPNVILTKPEVSEGTEVTVKCEAHPRAKVTLNGVPAQPLGPRAQLLLKATPEDNGRSFSCSATLEVAGQLIHKNQTRELRVLYGPRLDERDCPGNWTWPENSQQTPMCQAWGNPLPELKCLKDGTFPLPIGESVTVTRDLEGTYLCRARSTQGEVTRKVTVNVLSPRYE
notes: also called ICAM-1/Ig fusion protein
binding result [3]: no binding
